The conditions of assay [1]: cited from earlier work.
In the next assay the test system is CCL2 and CCL5 protein. The assay is described as follows: CCL2, CCL5, CXCL12 ELISA of fibroblast conditioned supernatants. Type of assay: cell-based, human. As to conditions: 48 hours. The text has this:
Various reports indicate that CXCR4 signals in conjunction with other chemokine receptors, including CCR2.
Background: In an ELISA, binding on a coated surface is turned into a signal by an enzyme label.

In assay [2] the test system is normal and IPF lung fibroblasts. The experiment in a line: Wound healing invasion assay of lung fibroblasts. Type of assay: cell-based, human. How it is done:
To determine the role of CXCR4 and CXCL12 in fibroblast invasion, normal and IPF lung fibroblasts were utilized in a wound healing invasion assay. ImageLock 96 well plates (Essen Bioscience) were coated with 50 μg/ml of Basement membrane extract (BME; Trevigen) for one hour at room temperature. Normal, and fibroblasts generated from lung biopsies of idiopathic pulmonary fibrosis (IPF) patients showing slow progression or rapid progression of the disease were plated (36,000 cells per well) on the BME-coated plates and incubated overnight. […] The BME was allowed to polymerize by incubating the plate at 37° C. for 15 minutes. The plates were then inserted into an IncuCyte Zoom imaging system and images were acquired every 2 hours for approximately 50 hours. Invasion was quantified using IncuCyte software (Essen Bioscience).

Assay [3] relates to Ramos tumor cells. The assay is described as follows: MTT cell proliferation assay. It is filed as cell-based, human. The note with it: 24 to 72 hrs, AM3-114 at 10 μM. Here is the method:
The ability of the CXCR4 molecules or polypeptides disclosed herein (i-bodies) to inhibit proliferation of Ramos tumor cells, a human Burkitt's lymphoma cell line expressing CXCR4 mentioned above, in vitro was examined in a MTT cell proliferation assay as described in (Lapteva (2005) Cancer Gene Therapy 12, 84-89). Cells were grown in a 96-well tissue culture plate and treated with a vehicle or the anti-CXCR4 body. The cells were then incubated with the MTT solution for approximately 4 hours. After this incubation period, a water-insoluble formazan dye is formed. After solubilization, the formazan dye is quantitated using a scanning multi-well spectrophotometer (ELISA reader).
(Formazan colour is commonly taken as a measure of viable cells.)

For assay [4] the following is noted: cited from earlier work. This is another data set of the same source.
Assay [5] relates to Ramos tumor cells. The experiment in a line: Apoptosis assay (annexin V / propidium iodide flow cytometry). Type of assay: cell-based, human. As to conditions: annexin V and propidium iodide double positive, 24 or 72 hours. Here is the method:
The ability of an i-body of the invention to induce apoptosis in Ramos tumor cells (a human Burkitt's lymphoma cell line) was examined in an apoptosis assay according to the methods as described in Mishra M et al (2011) J Cell Mol Med 15(11):2462-77. I-bodies were incubated with Ramos cells and examined by flow cytometry after 24 or 72 hours. The cells were stained for annexin V and propidium iodide which are classic markers for apoptosis. Cells which were double positive were assessed to have become apoptotic.
(Flow cytometry measures light scatter and fluorescence of single cells or particles in a stream.)

Assay [6] can be described thus: Bleomycin mouse model of pulmonary fibrosis. It is filed as in vivo. The text has this:
The optimal dose of Bleomycin is 2 U/mouse and the optimal time for assessing fibrocyte recruitment was confirmed at day 4. At days 4 bronchoalvelolar lavage (BAL) fluids were collected for analysis of SDF-1 concentration. One half of the lung tissue was used to make single cell suspensions of the lung and the cells used for flow cytometry and assayed for CD45+, CXCR4+ and Collagen1+ (fibrocytes). The other half of the lung tissue was Sircol stained for the presence of collagen 1 and RNA will be tested for Col-1, Col-3 and SDF-1.
SDF-1, fibrocytes and collagen deposition were monitored at Day 4. Groups were dosed with the i-body just prior to administration with Bleomycin. One half of the lung tissue was minced and washed in PBS and used to make single cell suspensions of the lung with Collagenase A and dispase treatment. The cells were then used for flow cytometry and assayed for CD45+, CXCR4+ and Collagen1+ fibrocytes. […]

Assay [7] relates to HIV entry into CXCR4 expressing T-cells. The assay is described as follows: In vitro HIV inhibition assay. It is filed as cell-based. The note with it: Human immunodeficiency virus 1, T-cell.
Assay [8] concerns Human platelet rich plasma. The assay is described as follows: SDF-1α induced platelet aggregation. It is filed as cell-based. The note with it: 10 or 20 ug/mL, 100 nM SDF-1 alpha. Here is the method: Experiments were carried out to examine whether the i-bodies could block platelet aggregation induced by SDF-1α. […] In the presence of negative control i-body 21H5 (or the isotype control for 12G5: mouse IgG2a). SDF-1 induced a robust and reproducible aggregation (the descending black curves, which indicate an increase in light transmission), which matches with what has been previously published.

Assay [9] concerns white blood cells, LSK and LSKSLAM cells in peripheral blood. The assay is described as follows: Stem cell mobilisation in mice after i.v. injection. Type of assay: in vivo, mouse. As to conditions: 1 and 3 hours after i.v. injection, compared to AMD3100. Here is the method:
After 1 and 3 hours, mice were euthanized and peripheral blood (PB) harvested. Spleens were harvested and weighed to assess for splenomegaly (enlargement of the spleen). Samples were lysed to remove red blood cells and 4000 cells plated for LPP (low-proliferative potential) and CFU-HPP (colony forming unit-high proliferative potential) colonies (colony counting 7 days post-plating). The remaining cells were stained with an antibody cocktail to assess lineage-committed, stem and progenitor cell content. Flow cytometric analysis was used to calculate numbers of lineage-committed cells, haemopoietic stem and progenitor cells as well as enriched HSC per volume of PB.

Assay [10] deals with T1, human CXCR4 (CXCR4 positive lipoparticles) (Homo sapiens, UniProt P61073).
T1 construct: purchased Integral Molecular LEV-101B
T1 sequence (P61073 whole entry): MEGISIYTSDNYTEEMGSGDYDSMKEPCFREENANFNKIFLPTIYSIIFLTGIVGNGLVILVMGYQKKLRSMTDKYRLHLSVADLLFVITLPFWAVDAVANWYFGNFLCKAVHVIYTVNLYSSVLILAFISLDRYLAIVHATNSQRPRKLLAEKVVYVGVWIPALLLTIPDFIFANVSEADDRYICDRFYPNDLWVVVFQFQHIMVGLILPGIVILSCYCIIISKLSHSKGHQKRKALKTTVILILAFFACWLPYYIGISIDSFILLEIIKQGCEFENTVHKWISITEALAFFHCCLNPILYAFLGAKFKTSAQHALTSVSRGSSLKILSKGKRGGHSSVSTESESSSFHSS
The experiment in a line: Biacore SPR kinetic binding to immobilised CXCR4 lipoparticles. Here is the method: (FIGS. 2A-2C, 5A-5C, 11A-11D, 17A-17B) Kinetic binding analysis of selected i-bodies with immobilized CXCR4 lipoparticles were performed at 25° C. using Biacore T200 instrument (GE Healthcare, Uppsala, Sweden). Streptavidin immobilization was performed in 1×HBS-P+ running buffer (10 mM HEPES, 150 mM NaCl, 0.05% [v/v] Tween-20). […] All binding experiments involving lipoparticles were performed with 1×HBS/BSA (10 mM HEPES, 150 mM NaCl, 1 mg/mL BSA) as instrument running buffer. […] In order to determine binding kinetics, serial dilutions (three-fold) of i-bodies diluted in 1×HBS/BSA were injected over immobilized lipoparticles with the association and dissociation phases monitored for 60 sec and 600 sec, respectively. A control measurement of the instrument running buffer (“zero-buffer” blank) solution was also included for double referencing purposes. Collected experimental data were processed using Scrubber software (www.biologic.com.au). Kinetic parameters (ka=association and kd=dissociation rate constants) and equilibrium dissociation constant (KD=kd/ka) were derived by fitting each set of experimental data to a Langmuir 1:1 binding model. All interaction measurements were performed in triplicate and the derived binding parameters reported as averaged values±standard deviation.

The target in the next assay is CXCR4 (Homo sapiens, UniProt P61073). The experiment in a line: Calcium flux assay (Screen Quest Fluo-8, FLIPR) in antagonist mode. Type of assay: cell-based. As to conditions: SDF-1 at EC80.
CXCR4, sequence (P61073 whole entry): as above
Assay [11] is described as follows: Murine air pouch model with SDF-1. It is filed as in vivo, BALB/c mice. The note with it: intraperitoneal, 30 minutes before SDF-1 6 μg. Here is the method:
The ability of i-bodies to block inflammation was evaluated in an in vivo murine air pouch model. The subcutaneous (s.c.) air pouch is an in vivo model used to study acute and chronic inflammation (Durate et al, Models of Inflammation: Carrageenan Air Pouch, Current Protocols in Pharmacology 5.6.1-5.6.8, March 2012). Injection of irritants into an air pouch in rats or mice induces an inflammatory response that can be quantified by the volume of exudate produced, the infiltration of cells, and the release of inflammatory mediators. An air pouch, is generated by injection of sterile air under the skin of the back of the mouse. […] Air pouch lavage fluid is then analyzed for cell trafficking and cytokine release.
The air pouch assay was performed on 7-week-old BALB/c mice. On days 1 and 3, 0.2 ml/g initial body weight (IBW) of sterile air was injected under the back skin to create the pouch. […] Thirty minutes later, SDF-1 (6 μg) was injected into the pouch. Four hours later, the mice were killed in a CO2 chamber and the air pouch was washed. Cells were collected, counted, and characterized by flow cytometry.

In the next assay the test system is CCRF-CEM cells. The experiment in a line: Immunohistochemistry staining of tumours in spleen and liver of SCID/bg mice. The note with it: 130 μg/ml. Here is the method:
Tissues were fixed in 10% neutral buffered formalin overnight and subsequently transferred into tissue cassettes and placed in 70% ethanol. The tissues were then paraffin embedded. Slides containing 4 μm sections were deparaffinized and hydrated by incubating them in two changes of xylene for five min each, followed by two changes of 100% ethanol for 3 min each, 70% ethanol for 2 min, 50% ethanol for 2 min, and distilled water for 5 min. Antigen retrieval was performed by incubating the slides in 10 mM Citric acid solution (pH 6.0) in an 80° C. oven overnight. The slides were subsequently washed in PBS and permeabilized in 10% methanol containing 0.4% H2O2 for 30 min. […] All slides were subsequently stained with biotinylated anti-His tag antibodies (Miltenyi Biotech) and developed using an HRP-DAB cell and tissue staining kit according to the manufacturer's instructions (R&D systems).

Setting [12] is: CXCR4 expressed on lipoparticles (Table 4).

“And” between values parts separate entries of the source, which are not always exact repeats. Equal entries are not always repeated. “Also recorded” adds a separate entry of the source.

As to `c1ccc(CNCc2ccc(CN3CCCNCCNCCCNCC3)cc2)nc1` [AMD3465], the “effectiveness relative to AMD3100 at releasing neutrophils from the bone marrow” value in [1] (Hatse et al 2005) is 10 fold. Moreover, the “diet-induced atherosclerotic lesion development” value in [1] (long-term inhibition, Apoe−/− and Ldlr−/− mice, Zernecke et al 2008) is “aggravated diet-induced atherosclerotic lesion development”.
Broadly, the IC50 is the concentration at which inhibition is half-maximal. The low end stands for inhibition by little substance, the high end for a need for much substance. Regarding `c1cc(CN2CCCNCCNCCCNCC2)ccc1CN1CCCNCCNCCCNCC1` [AMD3100, reference compound], the “CCL2 protein in IPF fibroblast conditioned supernatants” value in the assay on CCL2 and CCL5 protein is on record as “markedly increased”. The “invasion / motility of normal, slow and rapid IPF lung fibroblast lines” value in assay [2] (AMD3100 12 μM, 21H5 130 μg/ml) was “had no effect”. Besides, the “growth of RAMOS cells” value in the assay on Ramos tumor cells [3] is given as “able to inhibit cell growth”. Besides, the “development of pulmonary fibrosis in irradiated mice” value in assay [4] (Shu et al 2013) is given as “did not significantly suppress”. Further, the “bleomycin induced pulmonary fibrosis” value in assay [4] (Xu et al 2007) is “effectively alleviate bleomycin induced pulmonary fibrosis”. Also, the “induction of apoptosis in Ramos cells” value with Ramos tumor cells [5] is reported as “does not induce significant apoptosis”. The “recruitment of fibrocytes into the lungs” value in assay [6] (day 4, dose not given) is given as “able to block recruitment of fibrocytes”. Also, the “collagen content of the lung (Sircol)” value in [6] (positive controls, dose not stated) was “reduction in collagen”. In [7], the IC50 was 50 nM.

B1: AM4-746: affinity matured CXCR4 i-body, SEQ ID NO: 76 (protein)
chain: LQVDIVPSQGEISVGESKFFLCQVAGSKSNIRISWFSPNGEKLTPNQQRISVVWNDDSSSTLTIYNANIDDAGIYKCVVYRTGGYRHRYLKLGEATVNVKIFQ
modifications: protein sequence encoding AM4-746
As to B1, the “blocking of SDF-1α induced platelet aggregation” value in assay [8] is on record as “blocked aggregation to the same extent as the MAb12G5”. Moreover, the “mobilisation of white blood cells” value in assay [9] is “No mobilisation”. In [10] (setting [12]), this molecule displayed a Ka of 2.5e+06 M⁻¹ s⁻¹. Also, in the assay with CXCR4, the “Calcium Inhibition EC50” value is “uM”. In [11], the “cell migration / leukocyte infiltration into the air pouch” value was “inhibiting leukocyte infiltration; also recorded: inhibited cell migration”.

B2: AM4-1121: affinity matured CXCR4 i-body, SEQ ID NO: 48 (protein)
chain: LQVDIVPSQGEISVGESKFFLCQVAGSKSGIRISWFSPNGEKLTPNQQRISVVWNDDSSSTLTIYNANIDDAGIYKCVVYRTGGYRHRYLRLGEATVNVKIFQ
modifications: protein sequence encoding AM4-1121
For B2, the “blocking of SDF-1α induced platelet aggregation” value in assay [8] is listed as “most effective; also recorded: most efficient”. Also, in [9], the “mobilisation of white blood cells” value is “No mobilisation”. Further, in assay [10] (setting [12]), the Ka was 1.289e+06 M⁻¹ s⁻¹ and 1.42e+06 M⁻¹ s⁻¹; the “dissociation rate constant (kd)” value is 9290 M⁻¹ s⁻¹ and 9540 M⁻¹ s⁻¹. Besides, the “dissociation rate constant (kd)” value in assay [10] (off-rate, CXCR4 expressed on lipoparticles (Table 3)) was 0.1153. Also, the “Calcium Inhibition EC50” value with CXCR4 is reported as “uM”. Also, the “cell migration / leukocyte infiltration into the air pouch” value in assay [11] is “inhibiting leukocyte infiltration; also recorded: inhibited cell migration”.

B3: AM4-272-6H: AM4-272 with 6 His tag, containing the N-terminal sequence EAEA (protein)
chain: EAEALQVDIVPSQGEISVGESKFFLCQVAGSYSDYRISWFSPNGEKLTPNQQRISVVWNDDSSSTLTIYNANIDDAGIYKCVVYRIGGYRHRYLVLGEATVNVKIFQ
modifications: left off: small tags and cut ends
For the molecule B3, the “staining of CCRF-CEM cells in spleen and liver” value in the assay on CCRF-CEM cells is “stained CCRF-CEM cells”. In the assay with CCL2 and CCL5 protein, the “CCL2 protein in IPF fibroblast conditioned supernatants” value is “markedly increased” and the “CCL5 levels in IPF lung fibroblasts” value was “increased CCL5 levels in some IPF lung fibroblasts”. Also, in assay [2] (130 μg/ml), the “invasion of rapid-IPF (fast progressor) lung fibroblasts” value was “two out three” and the “invasion of slow-IPF lung fibroblasts” value is on record as “inhibited invasion”. Besides, the “induction of apoptosis in Ramos cells” value with Ramos tumor cells [5] is reported as “strongly induce apoptosis”.

Source of the values: patent US11142588B2, “Polypeptides which bind C-X-C chemokine receptor type 4 (CXCR4) and methods of treating or reducing the risk of fibrosis and cancer” (AdAlta Limited, priority 2015, dated 2021).
